{"source": "paper PMC5511134", "about": "“Intrinsic dynamics study identifies two amino acids of TIMP-1 critical for its LRP-1-mediated endocytosis in neurons” (Scientific Reports, 2017)", "binders": {"B1": {"name": "eFluor-conjugated T1-WT (natural protein)", "chain": "not shown", "modifications": "biotinylated (ProtOn Biotin Labelling Kit), incubated with eFluor 450 Streptavidin", "notes": "TIMP-1 as in m1 (T1-WT), labelled. numbers count on: the mature protein; also called fluoT1-WT; fluo-T1-WT; source: CHO cells, stably transfected"}, "B2": {"name": "eFluor-conjugated T1-F12A (natural protein)", "chain": "not shown", "modifications": "biotinylated (ProtOn Biotin Labelling Kit), incubated with eFluor 450 Streptavidin", "notes": "TIMP-1 F12A as in m2, labelled; also called fluoT1-F12A; fluo-T1-F12A; source: CHO cells, stably transfected"}, "B3": {"name": "eFluor-conjugated T1-K47A (natural protein)", "chain": "not shown", "modifications": "biotinylated (ProtOn Biotin Labelling Kit), incubated with eFluor 450 Streptavidin", "notes": "TIMP-1 K47A as in m3, labelled; also called fluoT1-K47A; fluoT1K47A; source: CHO cells, stably transfected"}, "B4": {"name": "FLAG-tagged TIMP-1 (tissue inhibitor of metalloproteinases-1), wild type (natural protein)", "chain": "not shown", "modifications": "glycosylated", "notes": "TIMP-1, cDNA from Origene (pCMV6-XL5) cloned into p3XFLAG-CMV14 from the start ATG; secreted by CHO cells. numbers count on: the mature protein; its concentration was measured with a Human TIMP-1 ELISA kit and the modelling used PDB 1UEA; also called T1-WT; wild-type TIMP-1; source: CHO cells, stably transfected; not shown: 3X-FLAG, C-terminal, kept"}, "B5": {"name": "FLAG-tagged TIMP-1 K47A (natural protein)", "chain": "not shown", "modifications": "glycosylated", "notes": "TIMP-1, cDNA from Origene, site-directed mutant K47A; secreted by CHO cells; also called T1-K47A; T1K47A; source: CHO cells, stably transfected; not shown: 3X-FLAG, C-terminal, kept"}, "B6": {"name": "FLAG-tagged TIMP-1 F12A (natural protein)", "chain": "not shown", "modifications": "glycosylated", "notes": "TIMP-1, cDNA from Origene, site-directed mutant F12A; secreted by CHO cells; also called T1-F12A; source: CHO cells, stably transfected; not shown: 3X-FLAG, C-terminal, kept"}}, "key": {"[1]": {"target": "T1, low-density lipoprotein receptor-related protein-1 (LRP-1) on mouse cortical neurons (mouse (endogenous in cortical neurons), UniProt Q91ZX7 20-4545)", "T1 construct": "LRP-1 at the surface of primary cortical neurons; extracellular alpha-chain non-covalently associated with the transmembrane beta-chain; source: endogenous, primary cortical neurons from CD1 mouse embryos", "T1 sequence (Q91ZX7 20-4545)": "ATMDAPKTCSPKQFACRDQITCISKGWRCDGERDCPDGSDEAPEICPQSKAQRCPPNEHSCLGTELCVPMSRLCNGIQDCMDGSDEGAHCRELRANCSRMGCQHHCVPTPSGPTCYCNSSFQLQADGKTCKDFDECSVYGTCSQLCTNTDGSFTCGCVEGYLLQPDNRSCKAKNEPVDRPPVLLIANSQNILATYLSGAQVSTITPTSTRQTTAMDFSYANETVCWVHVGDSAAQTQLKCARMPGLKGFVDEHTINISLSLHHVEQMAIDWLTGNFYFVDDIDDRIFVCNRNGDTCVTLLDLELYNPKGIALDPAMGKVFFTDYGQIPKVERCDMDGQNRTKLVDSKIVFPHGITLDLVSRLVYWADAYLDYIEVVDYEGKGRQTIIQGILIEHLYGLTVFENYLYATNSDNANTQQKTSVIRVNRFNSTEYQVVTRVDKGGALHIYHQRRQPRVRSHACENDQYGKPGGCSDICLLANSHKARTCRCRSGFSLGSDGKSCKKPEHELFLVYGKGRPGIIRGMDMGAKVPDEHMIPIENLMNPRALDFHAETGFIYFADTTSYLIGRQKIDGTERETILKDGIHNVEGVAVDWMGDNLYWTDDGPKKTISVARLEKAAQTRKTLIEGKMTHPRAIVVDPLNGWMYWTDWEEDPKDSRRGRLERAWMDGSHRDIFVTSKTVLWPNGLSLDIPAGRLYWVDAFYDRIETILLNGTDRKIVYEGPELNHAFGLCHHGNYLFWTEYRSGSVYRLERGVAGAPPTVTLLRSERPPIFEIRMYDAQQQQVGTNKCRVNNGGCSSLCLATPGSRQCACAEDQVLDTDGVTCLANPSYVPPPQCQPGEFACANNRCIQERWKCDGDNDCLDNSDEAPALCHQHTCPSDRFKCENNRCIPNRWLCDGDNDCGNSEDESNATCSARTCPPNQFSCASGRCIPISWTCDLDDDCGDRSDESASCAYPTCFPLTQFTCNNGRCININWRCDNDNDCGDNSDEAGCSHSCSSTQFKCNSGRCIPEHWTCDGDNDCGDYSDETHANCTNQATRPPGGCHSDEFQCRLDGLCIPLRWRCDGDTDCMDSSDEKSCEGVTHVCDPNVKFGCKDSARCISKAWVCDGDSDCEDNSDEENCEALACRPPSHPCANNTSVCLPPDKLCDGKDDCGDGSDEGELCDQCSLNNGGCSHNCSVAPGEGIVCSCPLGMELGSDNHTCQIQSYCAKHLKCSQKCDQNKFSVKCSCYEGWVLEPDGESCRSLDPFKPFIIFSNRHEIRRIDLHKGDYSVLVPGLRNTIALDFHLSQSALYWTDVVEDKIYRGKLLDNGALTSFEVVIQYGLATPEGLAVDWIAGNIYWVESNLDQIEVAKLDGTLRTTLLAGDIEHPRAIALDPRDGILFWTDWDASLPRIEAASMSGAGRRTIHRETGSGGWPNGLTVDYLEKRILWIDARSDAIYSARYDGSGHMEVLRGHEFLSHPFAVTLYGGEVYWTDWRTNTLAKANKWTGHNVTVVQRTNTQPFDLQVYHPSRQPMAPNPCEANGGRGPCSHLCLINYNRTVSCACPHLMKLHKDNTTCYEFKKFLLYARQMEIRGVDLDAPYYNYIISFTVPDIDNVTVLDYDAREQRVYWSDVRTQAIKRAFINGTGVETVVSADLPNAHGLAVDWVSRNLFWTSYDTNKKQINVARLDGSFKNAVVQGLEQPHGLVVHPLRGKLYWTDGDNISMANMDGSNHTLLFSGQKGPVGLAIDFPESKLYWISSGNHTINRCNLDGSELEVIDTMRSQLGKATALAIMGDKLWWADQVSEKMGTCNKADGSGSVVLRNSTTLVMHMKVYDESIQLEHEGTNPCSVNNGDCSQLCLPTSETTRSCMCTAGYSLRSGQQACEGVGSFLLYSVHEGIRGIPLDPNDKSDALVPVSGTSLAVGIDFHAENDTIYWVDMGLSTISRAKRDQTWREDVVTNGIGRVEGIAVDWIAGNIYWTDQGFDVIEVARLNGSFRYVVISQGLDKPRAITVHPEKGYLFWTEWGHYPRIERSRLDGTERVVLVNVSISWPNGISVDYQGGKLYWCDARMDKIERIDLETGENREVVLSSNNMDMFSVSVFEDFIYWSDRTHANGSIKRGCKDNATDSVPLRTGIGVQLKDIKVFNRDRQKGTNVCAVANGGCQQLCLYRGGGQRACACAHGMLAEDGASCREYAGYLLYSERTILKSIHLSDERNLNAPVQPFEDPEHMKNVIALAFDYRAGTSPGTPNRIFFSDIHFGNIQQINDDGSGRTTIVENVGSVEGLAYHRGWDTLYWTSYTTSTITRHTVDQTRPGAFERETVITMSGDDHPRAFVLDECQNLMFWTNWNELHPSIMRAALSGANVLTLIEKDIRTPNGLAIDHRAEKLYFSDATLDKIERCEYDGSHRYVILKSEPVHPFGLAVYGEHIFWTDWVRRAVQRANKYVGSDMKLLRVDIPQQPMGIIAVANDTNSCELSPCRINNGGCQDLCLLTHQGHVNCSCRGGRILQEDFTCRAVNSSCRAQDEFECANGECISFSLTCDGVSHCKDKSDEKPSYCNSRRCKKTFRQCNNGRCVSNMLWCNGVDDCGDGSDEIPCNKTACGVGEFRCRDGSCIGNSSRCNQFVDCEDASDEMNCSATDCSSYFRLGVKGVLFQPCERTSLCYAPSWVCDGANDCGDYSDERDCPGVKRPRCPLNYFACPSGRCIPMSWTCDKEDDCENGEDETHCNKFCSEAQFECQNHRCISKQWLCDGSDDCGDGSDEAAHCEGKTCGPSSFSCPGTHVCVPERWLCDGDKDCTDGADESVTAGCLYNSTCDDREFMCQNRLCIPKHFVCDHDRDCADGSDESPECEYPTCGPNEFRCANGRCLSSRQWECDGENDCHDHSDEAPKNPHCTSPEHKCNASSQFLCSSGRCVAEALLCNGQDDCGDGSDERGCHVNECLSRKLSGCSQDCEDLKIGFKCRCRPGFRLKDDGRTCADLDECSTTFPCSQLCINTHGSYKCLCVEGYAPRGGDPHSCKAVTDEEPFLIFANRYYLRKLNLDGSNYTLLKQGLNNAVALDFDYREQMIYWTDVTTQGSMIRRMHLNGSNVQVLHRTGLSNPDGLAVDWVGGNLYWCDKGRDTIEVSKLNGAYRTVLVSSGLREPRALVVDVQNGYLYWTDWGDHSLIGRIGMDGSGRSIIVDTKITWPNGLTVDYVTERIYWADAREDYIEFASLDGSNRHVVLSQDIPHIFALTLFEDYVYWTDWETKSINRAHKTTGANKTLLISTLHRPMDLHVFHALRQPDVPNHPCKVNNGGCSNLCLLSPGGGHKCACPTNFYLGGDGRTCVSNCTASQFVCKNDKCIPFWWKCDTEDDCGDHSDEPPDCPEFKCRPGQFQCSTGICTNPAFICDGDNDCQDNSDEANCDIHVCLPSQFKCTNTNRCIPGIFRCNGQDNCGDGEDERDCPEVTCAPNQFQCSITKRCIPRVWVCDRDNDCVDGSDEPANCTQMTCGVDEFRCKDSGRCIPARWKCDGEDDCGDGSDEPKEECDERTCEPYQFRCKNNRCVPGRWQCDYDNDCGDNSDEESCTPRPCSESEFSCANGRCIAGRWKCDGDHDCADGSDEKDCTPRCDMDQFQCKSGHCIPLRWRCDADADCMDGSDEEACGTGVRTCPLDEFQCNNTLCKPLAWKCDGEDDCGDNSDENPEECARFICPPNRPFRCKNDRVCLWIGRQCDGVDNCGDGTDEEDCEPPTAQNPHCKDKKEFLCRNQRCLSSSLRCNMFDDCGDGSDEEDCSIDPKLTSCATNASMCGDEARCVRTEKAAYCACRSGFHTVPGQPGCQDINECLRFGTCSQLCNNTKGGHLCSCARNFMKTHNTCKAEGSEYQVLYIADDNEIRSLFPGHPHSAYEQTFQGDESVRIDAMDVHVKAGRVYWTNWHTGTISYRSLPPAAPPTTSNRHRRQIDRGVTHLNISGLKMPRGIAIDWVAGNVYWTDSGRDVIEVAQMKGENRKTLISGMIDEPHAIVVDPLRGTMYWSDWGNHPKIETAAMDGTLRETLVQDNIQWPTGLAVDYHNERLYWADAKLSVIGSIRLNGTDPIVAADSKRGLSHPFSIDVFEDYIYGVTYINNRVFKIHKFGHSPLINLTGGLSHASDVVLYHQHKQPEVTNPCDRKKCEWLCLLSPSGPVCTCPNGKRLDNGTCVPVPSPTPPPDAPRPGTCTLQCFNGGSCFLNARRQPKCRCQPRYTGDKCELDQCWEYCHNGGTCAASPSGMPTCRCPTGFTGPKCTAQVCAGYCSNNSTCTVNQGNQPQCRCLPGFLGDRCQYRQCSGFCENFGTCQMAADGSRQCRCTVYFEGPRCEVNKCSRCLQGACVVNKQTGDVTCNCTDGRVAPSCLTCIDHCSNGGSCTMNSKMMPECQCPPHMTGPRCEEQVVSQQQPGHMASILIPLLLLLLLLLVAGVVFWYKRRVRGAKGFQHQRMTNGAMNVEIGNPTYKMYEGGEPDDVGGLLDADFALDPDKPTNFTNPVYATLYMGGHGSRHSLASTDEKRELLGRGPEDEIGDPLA", "assay": "fluorescence of ligand bound to the cell surface (released by pronase, spectrofluorimetry); mouse cortical neurons incubated at 4 °C with 5 nM eFluor-conjugated TIMP-1 or mutants, with or without 500 nM RAP or 30 µg/mL LRP-1 blocking antibodies R2629; washed, surface-digested with 0.1% pronase, fluorescence of the supernatant", "conditions": "one partner purified"}, "MMP-9": {"target": "T2, MMP-9 (UniProt P14780 107-707)", "T2 construct": "MMP-9; source: bought: Merck Biosciences", "assay": "enzyme inhibition assay (fluorogenic substrate, Morrison equation); 0.3 nM MMP-9 incubated 2 h at 27 °C with 0.7 to 11 nM TIMP-1 or mutants in 50 mM Tris-HCl pH 7.5, 150 mM NaCl, 5 mM CaCl2; 5 µM MMP-1/-9 fluorogenic substrate", "conditions": "both partners purified"}, "MMP-3 catalytic domain": {"target": "T3, MMP-3 catalytic domain (UniProt P08254 100-272)", "T3 construct": "MMP-3 catalytic domain; source: bought: Merck Biosciences", "T3 sequence (P08254 100-272)": "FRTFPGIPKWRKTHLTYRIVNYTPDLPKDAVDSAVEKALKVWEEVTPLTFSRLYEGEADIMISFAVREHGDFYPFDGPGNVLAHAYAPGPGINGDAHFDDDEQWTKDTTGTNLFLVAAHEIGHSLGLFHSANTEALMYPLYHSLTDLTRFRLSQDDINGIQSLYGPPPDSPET", "assay": "enzyme inhibition assay (fluorogenic substrate, Morrison equation); 2.3 nM MMP-3 catalytic domain incubated 1 h at 27 °C with 0.1 to 5.4 nM TIMP-1 or mutants in 50 mM Tris-HCl pH 7.5, 150 mM NaCl, 5 mM CaCl2; 3 µM MMP-3 fluorogenic substrate", "conditions": "both partners purified"}, "MMP-2": {"target": "T4, MMP-2 (UniProt P08253 110-660)", "T4 construct": "MMP-2; source: bought: Merck Biosciences", "T4 sequence (looked up)": "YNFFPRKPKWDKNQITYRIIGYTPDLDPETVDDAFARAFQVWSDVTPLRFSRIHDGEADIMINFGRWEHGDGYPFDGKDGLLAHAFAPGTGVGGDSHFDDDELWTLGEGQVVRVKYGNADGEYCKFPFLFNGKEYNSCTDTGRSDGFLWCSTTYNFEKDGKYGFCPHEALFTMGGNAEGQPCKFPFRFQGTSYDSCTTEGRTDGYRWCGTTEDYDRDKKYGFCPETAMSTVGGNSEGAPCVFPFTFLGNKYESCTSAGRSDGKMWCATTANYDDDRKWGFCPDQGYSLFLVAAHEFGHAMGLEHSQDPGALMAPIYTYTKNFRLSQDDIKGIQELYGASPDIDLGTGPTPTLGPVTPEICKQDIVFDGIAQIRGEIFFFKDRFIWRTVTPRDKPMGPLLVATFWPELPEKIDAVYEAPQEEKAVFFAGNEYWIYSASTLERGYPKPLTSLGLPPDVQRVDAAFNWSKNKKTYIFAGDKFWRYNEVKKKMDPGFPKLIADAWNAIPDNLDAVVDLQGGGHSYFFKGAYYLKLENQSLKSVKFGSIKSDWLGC", "assay": "enzyme inhibition assay (fluorogenic substrate, Morrison equation); 0.76 nM MMP-2 incubated 2 h at 27 °C with 0.17 to 13.5 nM TIMP-1 or mutants in 50 mM Tris-HCl pH 7.5, 150 mM NaCl, 5 mM CaCl2; 2.5 µM MMP-2/-7 fluorogenic substrate", "conditions": "both partners purified"}, "[2]": {"target": "T5, Recombinant LRP-1 mini-domain DIV with an Fc-tag (UniProt Q07954 3332-3778)", "T5 construct": "No catalogue number is printed; also called LRP-1 domain IV; source: bought: R&D", "T5 sequence (Q07954 3332-3778)": "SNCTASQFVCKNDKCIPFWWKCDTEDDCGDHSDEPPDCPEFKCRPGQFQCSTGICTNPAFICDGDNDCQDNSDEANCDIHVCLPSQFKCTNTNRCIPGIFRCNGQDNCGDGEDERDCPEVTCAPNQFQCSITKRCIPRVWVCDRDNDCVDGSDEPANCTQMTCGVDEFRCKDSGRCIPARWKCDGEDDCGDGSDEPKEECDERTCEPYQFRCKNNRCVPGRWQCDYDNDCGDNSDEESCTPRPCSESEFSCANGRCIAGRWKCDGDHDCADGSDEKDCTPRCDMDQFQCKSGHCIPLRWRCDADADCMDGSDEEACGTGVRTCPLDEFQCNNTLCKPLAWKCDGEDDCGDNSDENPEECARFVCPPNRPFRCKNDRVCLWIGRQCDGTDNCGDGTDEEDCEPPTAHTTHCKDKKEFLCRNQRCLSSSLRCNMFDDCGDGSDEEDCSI", "assay": "SPR; Biacore T200; LRP-1 DII or DIV with Fc-tag immobilised on a CMD500m chip functionalised with anti-Fc antibody; TIMP-1 or mutants 5-160 nM injected, multi-cycle kinetics; HBS-N (50 mM Hepes, 150 mM NaCl, 0.005% Tween, pH 7.4); KD calculated from kon and koff", "conditions": "both partners purified"}, "[3]": {"target": "T6, Recombinant LRP-1 mini-domain DII with an Fc-tag (UniProt Q07954 852-1182)", "T6 construct": "No catalogue number is printed; also called LRP-1 domain II; source: bought: R&D", "T6 sequence (looked up)": "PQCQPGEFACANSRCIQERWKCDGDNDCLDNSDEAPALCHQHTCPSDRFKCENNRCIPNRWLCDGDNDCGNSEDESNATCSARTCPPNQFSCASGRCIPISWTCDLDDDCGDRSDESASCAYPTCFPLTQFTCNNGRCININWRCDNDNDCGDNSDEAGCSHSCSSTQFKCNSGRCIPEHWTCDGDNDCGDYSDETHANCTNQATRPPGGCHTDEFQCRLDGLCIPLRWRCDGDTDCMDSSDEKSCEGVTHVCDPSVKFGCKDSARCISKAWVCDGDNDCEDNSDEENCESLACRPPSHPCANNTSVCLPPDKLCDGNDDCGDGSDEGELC", "assay": "SPR; Biacore T200; LRP-1 DII or DIV with Fc-tag immobilised on a CMD500m chip functionalised with anti-Fc antibody; TIMP-1 or mutants 5-160 nM injected, multi-cycle kinetics; HBS-N (50 mM Hepes, 150 mM NaCl, 0.005% Tween, pH 7.4); KD calculated from kon and koff", "conditions": "both partners purified"}}}
{"binder": "B1", "values": [{"measurement": "fluorescence at the cell surface", "setting": "[1]", "result": "~1500", "unit": "A.U."}]}
{"binder": "B2", "values": [{"measurement": "fluorescence at the cell surface", "setting": "[1]", "result": "~1500", "unit": "A.U."}]}
{"binder": "B3", "values": [{"measurement": "fluorescence at the cell surface", "setting": "[1]", "result": "~1500", "unit": "A.U."}]}
{"binder": "B4", "values": [{"measurement": "Ki", "setting": "MMP-9", "result": 4.25, "unit": "nM"}, {"measurement": "Ki", "setting": "MMP-3 catalytic domain", "result": 1.18, "unit": "nM"}, {"measurement": "Ki", "setting": "MMP-2", "result": 0.09, "unit": "nM"}, {"measurement": "Kd", "setting": "[2]", "result": 37.4, "unit": "nM"}, {"measurement": "koff", "setting": "[2]", "result": 0.0056, "unit": "s⁻¹"}, {"measurement": "kon", "setting": "[2]", "result": 148000, "unit": "M⁻¹ s⁻¹"}, {"measurement": "Kd", "setting": "[3]", "result": 10.8, "unit": "nM"}, {"measurement": "koff", "setting": "[3]", "result": 0.0136, "unit": "s⁻¹"}, {"measurement": "kon", "setting": "[3]", "result": "1.28e+06", "unit": "M⁻¹ s⁻¹"}]}
{"binder": "B5", "values": [{"measurement": "Ki", "setting": "MMP-9", "result": 4.4, "unit": "nM"}, {"measurement": "Ki", "setting": "MMP-3 catalytic domain", "result": 0.55, "unit": "nM"}, {"measurement": "Ki", "setting": "MMP-2", "result": 0.03, "unit": "nM"}, {"measurement": "Kd", "setting": "[2]", "result": 26.5, "unit": "nM"}, {"measurement": "koff", "setting": "[2]", "result": 0.0114, "unit": "s⁻¹"}, {"measurement": "kon", "setting": "[2]", "result": 427000, "unit": "M⁻¹ s⁻¹"}]}
{"binder": "B6", "values": [{"measurement": "Ki", "setting": "MMP-9", "result": 4.76, "unit": "nM"}, {"measurement": "Ki", "setting": "MMP-3 catalytic domain", "result": 0.58, "unit": "nM"}, {"measurement": "Ki", "setting": "MMP-2", "result": 0.06, "unit": "nM"}, {"measurement": "Kd", "setting": "[2]", "result": 38.7, "unit": "nM"}, {"measurement": "koff", "setting": "[2]", "result": 0.0055, "unit": "s⁻¹"}, {"measurement": "kon", "setting": "[2]", "result": 143000, "unit": "M⁻¹ s⁻¹"}, {"measurement": "Kd", "setting": "[3]", "result": 18.5, "unit": "nM"}, {"measurement": "koff", "setting": "[3]", "result": 0.0192, "unit": "s⁻¹"}, {"measurement": "kon", "setting": "[3]", "result": "1.07e+06", "unit": "M⁻¹ s⁻¹"}]}
